From US11969458B2, “Formula of neuregulin preparation” (Zensun (Shanghai) Science & Technology, Co., Ltd., priority 2014, dated 2024)

What was measured:
[1] = Forced degradation study of rhNRG-1 (oxidation with H2O2), RP-HPLC; assay type: physicochemical; details: for rhNRG-1 conc.: 0.06% H2O2, RT
Procedure: The API solution was forced to degrade as follow (Table 12):
The samples collected at time point was analyzed by the RP-HPLC.

[2] = pH-stability profile of rhNRG-1 in pH 3 to 10 buffers and DI-water (RP-HPLC, SDS-PAGE); assay type: physicochemical; details: for T90: time to degrade 10% of the initial concentration; for Rate of degradation: zero order, linear regression slope
Procedure: 2.1 Develop a RP-HPLC Method to Determine the Purity of rhNRG-1 Drug Substance.
RhNRG-1, batch 201204001, which contains 1.24 mg/mL rhNRG-1, 20 mM phosphate buffer and 0.5M NaCl, pH 5.5 (“API”) was used for the preparation of standard solution for all HPLC analysis.
In a 15 mL plastic tube, add the API and DI-water or a New Buffer. Mix into a solution containing 0.25 mg/mL rhNRG-1, 10 mM New Buffer, 4 mM phosphate (from the API) and 0.1 M NaCl (from the API).
For 40° C., test by SDS-PAGE after 10 days. Destain I (45% water, 45% methanol, 10% acetic acid, freshly made); 0.1% Coomasic Blue stain; The running gel (12%-15%) serves to separate individual polypeptides into discrete bands.
For 40° C., remove 150 μL and test by HPLC after 28.5, 49 and 77 hr.
For each Cone-vs-time profile, a linear regression analysis was performed and the slope of the regression equation was used to represent the rate of degradation in mg/mL/hr assuming zero order kinetics.
At each pH (3 to 8) and temperature, the estimated degradation rate and T90 (time to degrade 10% of the initial concentration or 0.025 mg/mL) are provided as follow (Table 10): […]

[3] = pH 5.63 (No New Buffer added), 40° C.
[4] = pH 5.63 (No New Buffer added), 60° C.

B1: rhNRG-1: proteins or peptides which consist of amino acid sequence of SEQ ID NO: 2 (protein, listed as Homo sapiens)
chain: SHLVKCAEKEKTFCVNGGECFMVKDLSNPSRYLCKCPNEFTGDRCQNYVMASFYKAEELYQ
sensitivity to oxidation ([1]; H2O2 exposure): very sensitive to peroxide and prone to oxidation | rhNRG-1 conc. ([1]; Oxidation exposure 0.3 hours): 0.24 mg/mL | rhNRG-1 conc. ([1]; Oxidation exposure 2.4 hours): 0.15 mg/mL | rhNRG-1 conc. ([1]; Oxidation exposure 4.5 hours): 0.10 mg/mL | rhNRG-1 conc. ([1]; Oxidation exposure 7.1 hours): 0.07 mg/mL | T90 at the lower pH relative to the one in its original buffer ([2]; lower pH (3.2) vs original buffer (pH 5.5, as is)): about 20 × | T90 at the lower pH relative to the one at pH 4.2 ([2]; lower pH (3.2) vs pH 4.2): about 2 × | pH of the best stability observed ([2]; pH 3 to 8 study, lowest pH): 3.2 | stability in solution depending on pH ([2]; pH 3 to 10): more stable in acid solution (PH 3.0 to 7.0) than in basic solution (PH 8.0 to 10.0) | % over initial conc. ([2]; pH 3.19 (Sodium phosphate), 40° C., 28.5 hr): 97% | % over initial conc. ([2]; pH 3.19 (Sodium phosphate), 40° C., 49 hr): 97% | % over initial conc. ([2]; pH 3.19 (Sodium phosphate), 40° C., 77 hr): 96% | % over initial conc. ([2]; pH 3.19 (Sodium phosphate), 60° C., 7.5 hr): 98% | % over initial conc. ([2]; pH 3.19 (Sodium phosphate), 60° C., 24 hr): 93% | % over initial conc. ([2]; pH 3.19 (Sodium phosphate), 60° C., 48 hr): 89% | % over initial conc. ([2]; pH 3.19 (Sodium phosphate), 60° C., 65 hr): 82% | % over initial conc. ([2]; pH 3.19 (Sodium phosphate), 60° C., 77 hr): 72% | Initial Conc ([2]; pH 3.19 (Sodium phosphate)): 0.241 mg/mL | T90 ([2]; pH 3.19, 40° C.): 10.4 days | Rate of degradation ([2]; pH 3.19, 40° C.): 0.0001 mg/mL/h | T90 ([2]; pH 3.19, 60° C.): 1.7 days | Rate of degradation ([2]; pH 3.19, 60° C.): 0.0006 mg/mL/h | % over initial conc. ([2]; pH 4.17 (Sodium acetate), 40° C., 28.5 hr): 97% | % over initial conc. ([2]; pH 4.17 (Sodium acetate), 40° C., 49 hr): 97% | % over initial conc. ([2]; pH 4.17 (Sodium acetate), 40° C., 77 hr): 93% | % over initial conc. ([2]; pH 4.17 (Sodium acetate), 60° C., 7.5 hr): 99% | % over initial conc. ([2]; pH 4.17 (Sodium acetate), 60° C., 24 hr): 93% | % over initial conc. ([2]; pH 4.17 (Sodium acetate), 60° C., 48 hr): 91% | % over initial conc. ([2]; pH 4.17 (Sodium acetate), 60° C., 65 hr): 84% | % over initial conc. ([2]; pH 4.17 (Sodium acetate), 60° C., 77 hr): 78% | Initial Conc ([2]; pH 4.17 (Sodium acetate)): 0.247 mg/mL | T90 ([2]; pH 4.17, 40° C.): 5.2 days | Rate of degradation ([2]; pH 4.17, 40° C.): 0.0002 mg/mL/h | T90 ([2]; pH 4.17, 60° C.): 1.7 days | Rate of degradation ([2]; pH 4.17, 60° C.): 0.0006 mg/mL/h | % over initial conc. ([2]; pH 5.08 (Sodium acetate), 40° C., 28.5 hr): 94% | % over initial conc. ([2]; pH 5.08 (Sodium acetate), 40° C., 49 hr): 94% | % over initial conc. ([2]; pH 5.08 (Sodium acetate), 40° C., 77 hr): 86% | % over initial conc. ([2]; pH 5.08 (Sodium acetate), 60° C., 7.5 hr): 98% | % over initial conc. ([2]; pH 5.08 (Sodium acetate), 60° C., 24 hr): 92% | % over initial conc. ([2]; pH 5.08 (Sodium acetate), 60° C., 48 hr): 93% | % over initial conc. ([2]; pH 5.08 (Sodium acetate), 60° C., 65 hr): 82% | % over initial conc. ([2]; pH 5.08 (Sodium acetate), 60° C., 77 hr): 82% | Initial Conc ([2]; pH 5.08 (Sodium acetate)): 0.242 mg/mL | T90 ([2]; pH 5.08, 40° C.): 2.6 days | Rate of degradation ([2]; pH 5.08, 40° C.): 0.0004 mg/mL/h | T90 ([2]; pH 5.08, 60° C.): 1.7 days | Rate of degradation ([2]; pH 5.08, 60° C.): 0.0006 mg/mL/h | % over initial conc. ([2]; pH 5.47 (Histidine), 60° C., 7.5 hr): 95% | % over initial conc. ([2]; pH 5.47 (Histidine), 60° C., 24 hr): 92% | % over initial conc. ([2]; pH 5.47 (Histidine), 60° C., 48 hr): 86% | % over initial conc. ([2]; pH 5.47 (Histidine), 60° C., 65 hr): 79% | % over initial conc. ([2]; pH 5.47 (Histidine), 60° C., 77 hr): 79% | Initial Conc ([2]; pH 5.47 (Histidine)): 0.248 mg/mL | T90 ([2]; pH 5.47, 60° C.): 1.5 days | Rate of degradation ([2]; pH 5.47, 60° C.): 0.0007 mg/mL/h | % over initial conc. ([2]; pH 5.63 (No New Buffer added), 40° C., 28.5 hr): 92% | % over initial conc. ([2]; pH 5.63 (No New Buffer added), 40° C., 49 hr): 91% | % over initial conc. ([2]; pH 5.63 (No New Buffer added), 40° C., 77 hr): 38% | T90 [2, 3]: 0.5 days | Rate of degradation [2, 3]: 0.0019 mg/mL/h | % over initial conc. ([2]; pH 5.63 (No New Buffer added), 60° C., 7.5 hr): 95% | % over initial conc. ([2]; pH 5.63 (No New Buffer added), 60° C., 24 hr): 84% | % over initial conc. ([2]; pH 5.63 (No New Buffer added), 60° C., 48 hr): 82% | % over initial conc. ([2]; pH 5.63 (No New Buffer added), 60° C., 65 hr): 69% | % over initial conc. ([2]; pH 5.63 (No New Buffer added), 60° C., 77 hr): 64% | T90 [2, 4]: 1.0 days | Rate of degradation [2, 4]: 0.001 mg/mL/h | Initial Conc ([2]; pH 5.63 (No New Buffer added)): 0.251 mg/mL | % over initial conc. ([2]; pH 6.02 (Sodium citrate), 40° C., 28.5 hr): 94% | % over initial conc. ([2]; pH 6.02 (Sodium citrate), 40° C., 49 hr): 94% | % over initial conc. ([2]; pH 6.02 (Sodium citrate), 40° C., 77 hr): 86% | % over initial conc. ([2]; pH 6.02 (Sodium citrate), 60° C., 7.5 hr): 95% | % over initial conc. ([2]; pH 6.02 (Sodium citrate), 60° C., 24 hr): 88% | % over initial conc. ([2]; pH 6.02 (Sodium citrate), 60° C., 48 hr): 85% | % over initial conc. ([2]; pH 6.02 (Sodium citrate), 60° C., 65 hr): 72% | % over initial conc. ([2]; pH 6.02 (Sodium citrate), 60° C., 77 hr): 72% | Initial Conc ([2]; pH 6.02 (Sodium citrate)): 0.251 mg/mL | T90 ([2]; pH 6.02, 40° C.): 2.6 days | Rate of degradation ([2]; pH 6.02, 40° C.): 0.0004 mg/mL/h | T90 ([2]; pH 6.02, 60° C.): 1.2 days | Rate of degradation ([2]; pH 6.02, 60° C.): 0.0009 mg/mL/h | % over initial conc. ([2]; pH 7.00 (Sodium phosphate), 40° C., 28.5 hr): 92% | % over initial conc. ([2]; pH 7.00 (Sodium phosphate), 40° C., 49 hr): 87% | % over initial conc. ([2]; pH 7.00 (Sodium phosphate), 40° C., 77 hr): 82% | % over initial conc. ([2]; pH 7.00 (Sodium phosphate), 60° C., 7.5 hr): 90% | % over initial conc. ([2]; pH 7.00 (Sodium phosphate), 60° C., 24 hr): 76% | % over initial conc. ([2]; pH 7.00 (Sodium phosphate), 60° C., 48 hr): 65% | Initial Conc ([2]; pH 7.00 (Sodium phosphate)): 0.251 mg/mL | T90 ([2]; pH 7.00, 40° C.): 1.7 days | Rate of degradation ([2]; pH 7.00, 40° C.): 0.0006 mg/mL/h | T90 ([2]; pH 7.00, 60° C.): 0.7 days | Rate of degradation ([2]; pH 7.00, 60° C.): 0.0015 mg/mL/h | % over initial conc. ([2]; pH 8.07 (Sodium bicarbonate), 40° C., 28.5 hr): 89% | % over initial conc. ([2]; pH 8.07 (Sodium bicarbonate), 40° C., 49 hr): 83% | % over initial conc. ([2]; pH 8.07 (Sodium bicarbonate), 40° C., 77 hr): 68% | % over initial conc. ([2]; pH 8.07 (Sodium bicarbonate), 60° C., 7.5 hr): 68% | % over initial conc. ([2]; pH 8.07 (Sodium bicarbonate), 60° C., 24 hr): 4% | Initial Conc ([2]; pH 8.07 (Sodium bicarbonate)): 0.253 mg/mL | T90 ([2]; pH 8.07, 40° C.): 1.0 days | Rate of degradation ([2]; pH 8.07, 40° C.): 0.001 mg/mL/h | T90 ([2]; pH 8.07, 60° C.): 0.2 days | Rate of degradation ([2]; pH 8.07, 60° C.): 0.0061 mg/mL/h
